Data taken from article PMC4515589, “In vitro analysis of phosphorothioate modification of DNA reveals substrate recognition by a multiprotein complex” (Scientific Reports, 2015).

Target: the molecule itself
Test: SEC + other: densitometry of SDS-PAGE bands; ~600 kDa gel filtration fraction of the DptC/D/E complex resolved on Coomassie-stained SDS-PAGE, bands quantified by ImageJ and normalised by molecular mass; copy number worked out from the ~600 kDa mass and the equimolar amounts

| Protein | stoichiometry N |
| --- | --- |
| DptE (S. enterica serovar Cerro 87) (natural protein, DptE (13 kDa), phosphorothioate-modifying protein of Salmonella enterica serovar Cerro 87; expressed from the coding region of the dptC/D/E operon; also called PT-modifying protein E; source: E. coli BL21 (DE3), co-overexpressed with His-DptC and DptD from pET-28a(+); in lysate, then co-purified with His-DptC (nickel column, gel filtration)) MLPNRMVLSRQTEDQLKKLKGYTGITPNVAARLAFFRSVESEFRYSPERDSKKLDGSLVLDKITWLGETLQATELVLKMLYPQLEQKILIKAWAAHVDDGIAALRNYRSLKDFSKNI | 4 |
| DptD (S. enterica serovar Cerro 87) (enzyme, DptD (77 kDa), phosphorothioate-modifying protein of Salmonella enterica serovar Cerro 87; expressed from the coding region of the dptC/D/E operon; also called PT-modifying protein D; source: E. coli BL21 (DE3), co-overexpressed with His-DptC and DptE from pET-28a(+); in lysate, then co-purified with His-DptC (nickel column, gel filtration)) MRANRLCLSMRKMNVLIKQLVLHNFRVFCGTHTIDLAPRKRPHEVNPRPIVLFGGLNGAGKTSILSAIRLALYGRLAFGPAMQQQEYVEQLGALVHNGTYTAERPDEAAVELTFTYNQNGHETEFTVTRSWKKGKKDRLSLQQDGQPRSELSYDQCQGFLNELIPHGVADLFFFDGEKIAELAEDESGNILRTAVRRLLGLDLIARLQNDLMIFIKRQQTAQLGGSQQQQVEALEAKIKTLAGQAEKLLEEADFVNSRIEFLSQDIIRHEGLLNAQGGAFAQTKAQEKQKVETLLKEKERLEKALRQECDGSLPYALAPNTLSRLLEKIANEAQIKQAKIFETELNQFLTQLKNDIAFRSSSESSTRAIATEAITNNLDAYMATKPKGDLLFDISEREAGMLQQSIEQDSKKAWQRFDMYRHQLADIEQQLEQAAANIARAPEDEQLMDLFAALRDLDHKREKQRQKYRSLLEEAKRTKQQQLDCVRQVQKAHDITRSQHGLSSAFKNAQETINLLDYYSNVLTQARVKKLSANFEIAYHKLARKEDLQLNAHINPQTFDVELVDEKGSVINRKLLSAGEKQIYAIAILEALAKTSGRDFPVIIDTPLGRLDSQHRDKLINHYFPEASHQVVLLSTDTEVDERYFVDRLRDDISHAYEIVFNAHTKSSALKPGYFWELTKEAV | 4 |
| DptC with N-terminal His-tag (S. enterica serovar Cerro 87) (enzyme, DptC, phosphorothioate-modifying protein of Salmonella enterica serovar Cerro 87; coding region of the dptC/D/E operon amplified from genomic DNA; the upstream primer begins at the ATG of dptC; also called His-Tag labeled DptC; labelled DptC; source: E. coli BL21 (DE3), co-overexpressed with DptD and DptE from pET-28a(+); in lysate, then purified (nickel HiTrap chelating column, Superdex gel …)) MSKLVQAYDLAEYEDFINQEQFAGRPLAEYVAEVQRIYCADKRPWVIGYSGGKDSSAVITLVYLALLGLPPEMRSKDVFIVSSDTLVETPVVVDLIKKTMLQIEAGAKRNGLPITQHAVTPKTNETFWVNLLGKGYPAPTRSFRWCTERMKINPVSDFIKDKVSQFDEVIVVLGSRSSESASRAQVIAKHKIDGSRLARHTTLANAFIYTPIDTWDVEDVWKLLRGAFRYAPEDIDEWESPWGGNNRPLWTLYMDSSAQGECPLVIDESTPSCGNSRFGCWTCTVVTKDKAMESLIKNGEEWMSPLLKYRDLLAFTTDPANKDTYRNYKRRTGKVSYQYAKDGEDRSAERKHVPGPYWLKYRQQWLKDLLEIERDLNAQGHTITLITQPELHAIRQEWLKDPNEPDWHDTLPEIYREVYQQDLNWVVDDQSRFDASDADLLAQITQGFDVVPEMVMKLIELETSMEGLSRRQGIFDKLGTILKQDWGSLEEIQQQQATLQKRNDRDIHQDEVEKLEAELQTLQRRIIDAGESSVLIDEENERAH | 4 |
